Experiment: yeast display, Sf9 membrane polyspecificity reagent, FACS + sequencing; frameworks hold sequencing errors
Method in brief: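 Sorting gates, low and high (top ~1%), were placed on anti-HA fluorescence to track expression and on streptavidin fluorescence to track reagent binding. A clone's polyreactivity label is taken from the gate it came out of. The reagent was 10% biotinylated, detergent-solubilized Sf9 membrane, applied for 1 hour at 4 °C to galactose-induced yeast display cells.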

Row | Sequence | polyreactivity (PSR sort gate)
1 | QVQHVESAGGLVQAGGILRLSCAASGRIFYPYAMGWYRQAPGKERELVAAISSSGGSTYYADSVKGRFTISRDNAKNTVSLQMNSLKPEDTAFYYCNKDFQYYPRIFGYWGQGTQVTVSS | high polyreactivity
2 | QVQHVESAGGLVQAGGILRLSCHASGFTIHAYVLGWYRQAPGKERELVAAISSGGSTYYADSVKGRFTISRDNAKNTGYLQMNSLKPEATSVYYCAAAYPYYWHLDFWGQGSQVTVSS | low polyreactivity
3 | QVQHVESAGGLVQAGGSLRLSCAASGITFKVYAMGWYRQAPGKERELVATISRSDAGTSYADSVKGRFTISRDNAKNTVYLQMNSLKPEDTAVYYCAATYVSKKTHTKYDYWGQGTQVTVSS | high polyreactivity
4 | QVQHVESAGGLVQEGGSLRLSCAASGSTSVKYPMGWYRQAPGKERELVAAIRKRGDSTYYADSVKGRFTISRDNAKNTVYLQMNSLKPEDTAVYYCAAQYLRGRGYWGQGTQVTVSS | low polyreactivity
5 | QVQHVESGGALVQAGGSLRLSCAASGRIFSPNAMGWYIQAPGKEWDLVAAISSGGSTYADSVKGRFTISRDNAKNTVYLQMNSLKPEDTAVYYCARTYQWTVAGRYRAYHAGYYWGQGTQVTVSS | high polyreactivity
6 | QVQHVESGGGIVQAGGSLRLSCAASGFTFWYYAMGWYRQAPGKERELVAVINTSGGSTYADSVKGRFTISRDNAKNTVFLQMNSLKPEDTAVYYCNKDFIYGYDAASYRPEYDYWGQGTQVTVSS | low polyreactivity
7 | QVQHVESGGGIVQAGGSLRLSCAASGITFYGNTMGWYRPARGKERELVARISSGGSTNYADSVKGRFTISREKAKNSGYLQMNSLKPEDTAVYYCAVKQYWYIWSGYGYDYWGQGTQVTVSS | high polyreactivity
8 | QVQHVESGGGIVQAGGSLRLSCAASGSTFSGYAMGWYRQAPGKERELVASISSGGRTTYADSVKGRFTISRDNAKNTVYLQMNSLKPEDTAVSYCAKRIRPGYARLYSWGQGTQVTVSS | high polyreactivity
9 | QVQHVESGGGLGQAGGSLRLSCAASGLTFSVYAMGWSRQAPGKERELYAAISYSGVSTYADSEKGRFTISRDNAKNTVYLQMNSLKPEDTAVYYCNARWVREGYRRWYDYWGQGTQVTVSS | low polyreactivity
10 | QVQHVESGGGLLQAGGSLRLSCAASGRIFWINAMGWYIQAPGKERELVATISSGSTSYADSVKGRFTITRDNAKNTVYLQMNSLKPEDTAVYYCAVSLRYTRSGAYDYWGQGTQVTVSS | low polyreactivity
11 | QVQHVESGGGLVHAGGSLRLSCAASGRIFGGYAMGWYRQPPGKDREFVATISRSGSSTYYADSVKGRFTISRDNAKNTVYLQMNSLKPEDTAVYYCAAVIRRPNQWYWWTNSDYWGQGTQVTVSS | high polyreactivity
12 | QVQHVESGGGLVHAGGSLRLSCAASGSIASYAMGWYRHATGKEKELVAGISWSGGSTYYADSVKGRFTISRDNAKNNVYLQMISLKPEDTAVYYCAARRFCPNRDSRMGYWGQGTQVTVSS | high polyreactivity
13 | QVQHVESGGGLVHAGGSLRLSCASSGSIFYPYAMGWYRQAQGKERELVAAIRNGGSTYYTDSVKGRFTISRDNAKNTVYLQMNSLKPEDTAVYYCAASVRRRHPFEYWGQGTQVTVSS | high polyreactivity
14 | QVQHVESGGGLVKAGGSLRLSCAASGFTFGVYAMGWYRLAPGKERELVAAISRRGTSTYYADSVKGRFTISRDNAKNTVYLQMNSLKPEDTAVYYCNARRYQVTVDHWGQGTQVTVSS | high polyreactivity
15 | QVQHVESGGGLVQAGCSLRLCCAASGSTFGGYAMGWSSQAHGNERELVAGITIAVCSTYYADSVKGRFTISRDNAKNTVYLQMNSLKPEDTAVYYCAADGLSWYNYWGPGTQVTVSS | high polyreactivity
16 | QVQHVESGGGLVQAGCSLRLSCAASGSIFSSYAMGWYRQAPGKERELVAAISQSGGDTYYADSVKGRFKISRDNAKNTVYLQMNSLKPEDTAVYYCAASVWFYPMDYWGQGTQVTVSS | low polyreactivity

Row | Sequence | polyreactivity (PSR sort gate)
17 | QVQHVESGGGLVQAGCSLRLSCAASGSIFWRYAMGWSRQAHGKEREFVAAISGSGVRTSYADSVKGRFTISRDNAKNTVYLQMNSLIPEDTAVYYCAARVSYRYTSAAYEYWGQGTQVTVSS | high polyreactivity
18 | QVQHVESGGGLVQAGGRLRLSCAASGSIFGSNAMGWYRQEPGKERELVAVISRRGGSTYYADSVKGRFTISRDNAKNTVYLQMNSLKPEDTAVYYCADRVWYPRYDYWGQGTQVTVSS | high polyreactivity
19 | QVQHVESGGGLVQAGGSHRLSCAASGSIYWWNAMGWYRQAPGKERELVAAISFSGGSTYYADSVKGRFTISRDNAKNTVYLQMNSLKPEDTAVYYCAAEAYDDYDYWGQGTQVTVSS | low polyreactivity
20 | QVQHVESGGGLVQAGGSLLLSCAASGSIFGGNAKGWYRQAPGKERELVAVITSRGGSTYYADSVKGRFTISRDNAKNTVSLQMNSLKPEDTAVYYCNKRYLNRREGTDDYWGQGTQVTVSS | high polyreactivity
21 | QVQHVESGGGLVQAGGSLPLSCAASGFIFTSNSMGWYRQAPGKESEFVAAITSGGITYYADSVKGRFTISRDNAKNTVYLQMNSLKPEDTAVYYCAAVLSYQTPKYYRWRYGYWGQGTQVTVSS | low polyreactivity
22 | QVQHVESGGGLVQAGGSLPLSCAASGITFSKYAMGWYRQAPGKERELVAAITRSGGSTYYADSVKGRFTISRDNAKNTVYLQMNSLKPEDTAVYYCAAKRRERYGQTYGYWGQGTQVTVSS | high polyreactivity
23 | QVQHVESGGGLVQAGGSLRLICAASGITFYFNAMGWYRQAPGKERELVAAISRPGGSTYYADSVKGRFTISRDNAKNTVYLQMNSLKPEDTAVYYCAAEAYFELSGGGLEYGYDYWGQGTQVTVSS | high polyreactivity
24 | QVQHVESGGGLVQAGGSLRLICAASGLTSYYAMGSYRQAPGKEREIVAAIDGSDGNTYYADSVKGRYTISRDNAKNTVYLQMNSLKPEYTAVYYCNAETVLYWWSWENDYWGQGTQVTVSL | high polyreactivity
25 | QVQHVESGGGLVQAGGSLRLICAASGSTFGDNAKGRYREAPGKERELVAVITSDTSTYYADSVKGRFTISRDNAKNTVYLQMNSLKPEDTAVYYCAADWGGLWFWYEYWGQGTQVTVSS | low polyreactivity
26 | QVQHVESGGGLVQAGGSLRLRCAASGTTFSSNAMGWSRHAPGKERELVASITRGGSTSADSVKGRFTISRDNAKNTVYLQMNSLKPEDTAVYYCAKSVTGWRGLWYTPRNYYWGQGTQVTVSS | high polyreactivity
27 | QVQHVESGGGLVQAGGSLRLSCAASESILNRYVMGWYRQATGKERELVCTYYADSVKVRFTISRDNAKNTVYLQMNSLKPEDTAVYYCAADVYLYYAGSRYYYWGQGTQVTVSS | low polyreactivity
28 | QVQHVESGGGLVQAGGSLRLSCAASGFIFARNAMGWYRQARGKERELVAVISTRGRTYYADSVKGRFTFSRDNAKNTVYLQMNSLKPEDTAVYYCNADKVIGYDYWGQGTQVTVSS | high polyreactivity
29 | QVQHVESGGGLVQAGGSLRLSCAASGFIFPVYAMGWYRQAPGKDRELVAAISSGGITNYADSVKVRFTISRDNAKNTVYLQMNSLKPEDTAVYYCAARDYVRFGLYDYDYWGQGTQVTVSS | low polyreactivity
30 | QVQHVESGGGLVQAGGSLRLSCAASGFIFRWYAMGWYRQAPGKERELVAAITTSGGITYYADSVKGRFTISRDNAKNTVYLQMNSLKPEDTAVYYCNRSPWYGPWHPNSFGSGDYWGQGTQVTVSS | low polyreactivity
31 | QVQHVESGGGLVQAGGSLRLSCAASGFIFRYYTMGLYRQAPGKERELVATISNSGRTYYADSVKGRFTISRDNAKNTVYLQMNSLKPEDTAVYYCNALRASTTALWGGYWGQGTQVTVSS | high polyreactivity
32 | QVQHVESGGGLVQAGGSLRLSCAASGFIFTHYTMGWSRQAPGKESELVAVISSAGSTYYADSVKGRFTISRDNAKNTVYLQMNSLKPEDTAVYYCNKVVRQVHGRGLDYWGQGTQVTVSS | high polyreactivity

— the nanobody polyreactivity screen of Harvey et al. (2022)
